Measurements as given in US20040053822A1.

molecular target: HLA-B*5101 (human); assay: competition vs 125I probe peptide, purified HLA; conditions: remark: other sources report otherwise

Binder | IC50 [nM]
VPISMLYIL [MAGE2.170.M5 …] | 70
VPISHLYILI [MAGE2.170.110 …] | 50

molecular target: HLA-B*0702 (human); assay: competition vs 125I probe peptide, purified HLA; conditions: remark: other sources report otherwise

Binder | IC50 [nM]
YPLWSQSI [MAGE3.77.I8 YPLWSQSI] | 60

molecular target: HLA-A*0201 (human); assay: competition vs 125I probe peptide, purified HLA; conditions: remark: other sources report otherwise

Binder | IC50 [nM]
KMVELVHFL [MAGE2.112 …] | 9.8
YLQLVFGIEV [MAGE2.157 …] | 50

molecular target: HLA-A2401 (human); assay: inhibition of 125I probe peptide binding to purified HLA; conditions: not given

Binder | relative binding ratio (IC50 standard/IC50 peptide)
EMLGSVVGNW [MAGE3 peptide, position 134, 10 amino acids] | 0.0017
IFATCLGL [MAGE3 peptide, position 177, 8 amino acids] | 0.012
IFSKASSSL [MAGE3 peptide, position 150, 9 amino acids] | 0.016
LYIFATCL [MAGE3 peptide, position 175, 8 amino acids] | 0.014
LYIFATCLGL [MAGE3 peptide, position 175, 10 amino acids] | 0.048
NWQYFFPVIF [MAGE3 peptide, position 142, 10 amino acids] | 0.017
QYFFPVIF [MAGE3 peptide, position 144, 8 amino acids] | 0.12
SYDGLLGDNQI [MAGE3 peptide, position 185, 11 amino acids] | 0.0026

molecular target: HLA-A*2401 (human); assay: inhibition of 125I-labelled standard peptide binding to purified HLA; conditions: not given

Binder | relative binding ratio (IC50 standard peptide / IC50 test peptide)
EMLGSVVGNW [MAGE3 134-143 (position 134, 10 amino acids)] | 0.0017
HFVQENYL [MAGE3 249-256 (position 249, 8 amino acids)] | -0.0004
IFATCLGL [MAGE3 177-184 (position 177, 8 amino acids)] | 0.012
IFSKASSSL [MAGE3 150-158 (position 150, 9 amino acids)] | 0.016
IWEELSVL [MAGE3 221-228 (position 221, 8 amino acids)] | -0.0004
LYIFATCL [MAGE3 175-182 (position 175, 8 amino acids)] | 0.014
LYIFATCLGL [MAGE3 175-184 (position 175, 10 amino acids)] | 0.048
NWQYFFPVIF [MAGE3 142-151 (position 142, 10 amino acids)] | 0.017
NYPLWSQSY [MAGE3 76-84 (position 76, 9 amino acids)] | 0.027
QYFFPVIF [MAGE3 144-151 (position 144, 8 amino acids)] | 0.12
SYDGLLGDNQI [MAGE3 185-195 (position 185, 11 amino acids)] | 0.0026
VFEGREDSI [MAGE3 230-238 (position 230, 9 amino acids)] | -0.0004
VFEGREDSIL [MAGE3 230-239 (position 230, 10 amino acids)] | -0.0005

molecular target: HLA-A*1101 (human); assay: competition with 125I probe peptide, purified HLA; conditions: remark: other sources report otherwise

Binder | IC50 [nM]
LVHFLLLK [MAGE2/3.116 8-mer LVHFLLLK] | 40
YVFPVIFSK [MAGE3.138.V2 …] | 3

molecular target: HLA-A*0301 (human); assay: competition with 125I probe peptide, purified HLA; conditions: remark: other sources report otherwise

Binder | IC50 [nM]
LLGDNQIMPK [MAGE1/3.189 10-mer …] | 500
SVFSTTINK [MAGE2.69.V2K9 …] | 20
YFFPVIFSK [MAGE3.138 9-mer …] | 5000

molecular target: HLA-A*3301 (human); assay: competition with 125I probe peptide, purified HLA; conditions: remark: other sources report otherwise

Binder | IC50 [nM]
SMLEVFEGR [MAGE2.226 9-mer …] | 9

molecular target: HLA-A*0201 (human); assay: competition with 125I probe peptide, purified HLA; conditions: remark: other sources report otherwise

Binder | IC50 [nM]
YLQLVFGIEV [MAGE2.157 10-mer …] | 50

molecular target: HLA-A*3101 (human); assay: competition with 125I probe peptide, purified HLA; conditions: remark: other sources report otherwise

Binder | IC50 [nM]
TVINYTLWK [MAGE2.73.V2K9 …] | 9000
ALIETSYVK [MAGE2.277 9-mer …] | 900
YVFPVIFSR [MAGE3.138.V2R …] | 6

molecular target: HLA-A*6801 (human); assay: competition with 125I probe peptide, purified HLA; conditions: remark: other sources report otherwise

Binder | IC50 [nM]
LVHFLLLK [MAGE2/3.116 8-mer LVHFLLLK] | 400
LVHFLLLKY [MAGE2/3.116 9-mer …] | 8000

molecular target: HLA-A*0201 (human); assay: inhibition of 125I-probe binding to purified HLA-A*0201; conditions: remark: other sources report otherwise

Binder | IC50 [nM]
KMVELVHFL [MAGE2.112 (9-mer)] | < 500
YLQLVFGIEV [MAGE2.157 (10-mer)] | < 500
